Like-named read-outs stand apart in the source and are kept apart here.

Test [1] concerns the target cell-bound C3b on sheep erythrocytes (EAC4b,3b, called EC3b) (human) (UniProt P01024). Kind of test: radioligand binding.
Test [2] has the same target. The test can be described thus: radioligand binding. The source holds these as a separate data set.

Chain of UniProt P01024 (P01024 23-667, chain 1 of 2): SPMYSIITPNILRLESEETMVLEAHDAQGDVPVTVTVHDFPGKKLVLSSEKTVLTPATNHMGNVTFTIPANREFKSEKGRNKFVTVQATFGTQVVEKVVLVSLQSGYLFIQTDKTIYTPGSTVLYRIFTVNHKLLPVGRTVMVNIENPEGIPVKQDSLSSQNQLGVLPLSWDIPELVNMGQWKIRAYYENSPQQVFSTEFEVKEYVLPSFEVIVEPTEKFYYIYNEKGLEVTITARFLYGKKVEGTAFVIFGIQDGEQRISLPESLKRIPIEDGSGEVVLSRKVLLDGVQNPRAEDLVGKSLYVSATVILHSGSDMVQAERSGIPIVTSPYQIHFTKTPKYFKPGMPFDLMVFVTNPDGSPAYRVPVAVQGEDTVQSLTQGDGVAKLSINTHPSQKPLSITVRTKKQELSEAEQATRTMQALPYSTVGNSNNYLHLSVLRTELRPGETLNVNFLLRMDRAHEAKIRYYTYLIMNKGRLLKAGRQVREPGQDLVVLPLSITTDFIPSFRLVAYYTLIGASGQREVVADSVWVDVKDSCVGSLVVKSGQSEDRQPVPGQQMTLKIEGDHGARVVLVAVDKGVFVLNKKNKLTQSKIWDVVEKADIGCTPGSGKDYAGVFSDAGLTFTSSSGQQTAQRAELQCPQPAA
Chain of UniProt P01024 (P01024 749-1663, chain 2 of 2): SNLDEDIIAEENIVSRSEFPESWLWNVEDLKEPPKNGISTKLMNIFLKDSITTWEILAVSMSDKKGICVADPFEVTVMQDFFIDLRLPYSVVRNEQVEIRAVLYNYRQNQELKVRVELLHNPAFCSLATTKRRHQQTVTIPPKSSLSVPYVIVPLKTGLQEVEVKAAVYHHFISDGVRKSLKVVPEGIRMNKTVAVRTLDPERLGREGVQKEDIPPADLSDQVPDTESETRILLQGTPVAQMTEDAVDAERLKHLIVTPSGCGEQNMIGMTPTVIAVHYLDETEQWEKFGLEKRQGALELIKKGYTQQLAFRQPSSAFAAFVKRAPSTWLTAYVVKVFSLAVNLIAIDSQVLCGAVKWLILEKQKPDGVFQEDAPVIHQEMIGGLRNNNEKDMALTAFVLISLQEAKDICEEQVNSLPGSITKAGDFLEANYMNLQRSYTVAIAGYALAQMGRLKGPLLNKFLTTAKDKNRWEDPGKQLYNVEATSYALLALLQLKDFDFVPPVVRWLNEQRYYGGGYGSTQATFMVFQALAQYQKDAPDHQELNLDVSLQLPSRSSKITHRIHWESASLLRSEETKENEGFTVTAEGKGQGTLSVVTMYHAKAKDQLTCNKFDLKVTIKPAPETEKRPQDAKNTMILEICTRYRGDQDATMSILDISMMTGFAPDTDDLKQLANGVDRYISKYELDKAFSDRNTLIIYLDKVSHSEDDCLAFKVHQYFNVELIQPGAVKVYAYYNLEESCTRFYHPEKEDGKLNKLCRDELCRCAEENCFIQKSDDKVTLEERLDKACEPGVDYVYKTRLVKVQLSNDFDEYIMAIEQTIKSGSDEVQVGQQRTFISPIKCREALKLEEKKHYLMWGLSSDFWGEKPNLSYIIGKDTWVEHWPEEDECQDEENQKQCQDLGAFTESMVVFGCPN

In test [1], “activated properdin (P) (from UniProt P27918 28-469) (natural protein)” came in with a percent of input taken up of less than 1% and a stoichiometry N (molecules P per molecule C3b) of less than 10.
Turning to “precursor properdin (pre-P) (from UniProt P27918 28-469) (natural protein)”, the values for the uptake (cpm) in test [2] and in test [1] were 10700 cpm and 378 cpm, respectively.
